Assay results from a protein production outcome set (Wang et al. 2014).

Assay: label from the status in PepcDB records

Sequence | protein production
MSLKIRDAYTIVTCPGRNFVTLKIVTESGTHGIGDATLNGREMAVAAYLDEHVVPALIGRDAGRIEDTWQYLYRGAYWRRGPVTMTAIAAVDMALWDIKAKAAGMPLYQLLGGKSRERVMTYAHCTGQTIEDCLGEVARHVELGYRAVRVQSGVPGIETTYGVAKTPGERYEPADSSLPAEHVWSTEKYLNHAPKLFAAVRERFGDDLHVLHDVHHRLTPIEAARLGKAVEPYHLFWLEDCVPAENQESLRLIREHTTTPLAIGEVFNSIHDCRELIQNQWIDYIRMPLTHGGGITAMRRVADLASLYHVRTGFHGPTDLSPVCLGAAIHFDTWVPNFGIQEHMPHTDETDAVFPHDYRFEDGHFLAGESPGHGVDIDEELAAKYPYERASLPVNRLEDGTLWHWEGHHHHHH | not failed
MVLEYVYCLLAFCLYFMAYCINPDCSQRENPDTSAVCQNCGTPLILQNRYRLRHFLRTDRGSYTEVFAIEDLVNRDQPKVLKSLKEVTPQLERLFQQEASILNTLRHPGLPIGEALFPLVLNTGRQLWCFVMEKIPGEDLQTWLSHHQYVTSYKTALDWLKQLTQILQFVHEEKFFHRDIKPANIMVCPDGKLVLIDFGAARKVTQTIINRESVTIVHSLGYTAPEQRDGHAVVQSDFYALGRTLIYLLTGIDPTGDRAQDLLNWSKYIQDPKTPKKFISLLQVMTDSHPYHRPPTAQAILEKIEKIDQHSHQWPKLLLSATCGVLLLFAGKSLYQEITLPRTCDNILNDYLSCGEESLTPSSFWGNSQPPPAKQLGMEQYRNRNFGAAVNFLETAFQQESDPETLIYLNNAKIHQQFPANQIYTIAVAVPLERRTDIGREILRGVAQAQTEALKKGRALRIIIADDSNREDSKTGNNARKIAQHLVKYRDLLAVLGHYSSEATKNSLPIYSQARVVLISATSTSQNLKDPFFFRTVPSDRIAAQKMVTYLLSALKQNQVAIFYSRGSEYAESLSQAVRESTKSLPLKVIDHQAAFNLASDRFNAITALNQAQTQGAKAIVLIPDAGVGLYNAIPNALRVIQSNINQVWIVAGDSLYSSDSFTSEKAFSSPEIKYTAWAVFWHPLNEINSTFVKEVQNLWKIDILSILSNTNITWRTATSYDATLVLSQAITQNPTRLGIKKTLSQPQFSVTGATGVIQFAGSDRQNGKITMVRVQRNCDDNGFFFIPSDRSLQCQ | failed
MGGDSVAIFTADMSVSGELRNDIELHLRRGIESDALRLVYLPEVDLRTGDIVGTEALVRWQHPTRGLLAPGCFIPVAESINLAGELDRWVLRRACNEFSEWQSAGLGHDALLRINVSAGQLVTGGFVDFVADTIGQHGLDASSVCLEITENVVVQDLHTARATLARLKEVGVHIAIDDFGTGYSAISLLQTLPIDTLKIDKTFVRQLGTNTSDLVIVRGIMTLAEGFQLDVVAEGVETEAAARILLDQRCYRAQGFLFSRPVPGEAMRHMLSARRLPPTCILEHHHHHH | failed
MASDAPTGHVSDLDWLMSGLVQRVPHTTSAVLLSCDGLVKSVHGLDPDSADHMAALASGLYSLGRSAGIRFGDGGDVRQVVVELDSTLLFVSTAGSGTCLAVLAGREADAAVLGYEMAMLVKSVRPYLMTAPRQAAAQPPAMRP | failed
MQKIALCITGASGVIYGIKLLQVLEELDFSVDLVISRNAKVVLKEEHSLTFEEVLKGLKNVRIHEENDFTSPLASGSRLVHYRGVYVVPCSTNTLSCIANGINKNLIHRVGEVALKERVPLVLLVREAPYNEIHLENMLKITRMGGVVVPASPAFYHKPQSIDDMINFVVGKLLDVLRIEHNLYKRWRG | not failed
MEMSKQLGKKFNLLTLLAYAAPTMALMLFMSIYTMVDGMFIARYVGATALSAVNIFFPIYGLIIAIALMLGTGANAIIAKKIGENNEEEAKENFTFIVICGAVLGLVITVFGLLLMEPILLMLGAGATEELFDFTYTYAKIILCTSPFMILQMLFQNFFVTAGKPNLGLTITVVGGVANIVLDYVFIVLLQMGIAGAGIATAIGIFIPAAYGFVYFIYNKESGLHFVKPKVDGKVLLNSCINGSSEMVSNLASSIVTFAFNLLMIKHLGVDGVAAITIMLYVMFILSSISMGYSAGVAPIISYNYGSKNSSQLKRVFNYSLLIIVIGSVTMYGVSMMFGAYFIQFMAPEGSAVYHIAIEGLNIFSISFLFMGFNIFSSMVFTAFSNGKISAAISFLRTLVFVLASLWILPAILGVTGIWLAIPLAEILSVIVCIFFLTHYRNDYHYA | failed
MSLSYVHTEIQNDALYITLDYPEKKNGLDAELGTSLLEAIRAGNNETSIHSIILQSKHRAYFSSGPRLEDLLICASDQSDVRLREVLHVLNHCVLEIFTSPKVTVALINGYAYGGGFNMMLACDRRIALRRAKFLENFHKMGISPDLGASYFLPRIIGYEQTMNLLLEGKLFTSEEALRLGLIQEICENKQELQERVKNYLKAVSEGYVPAIAATKKLLKGKAAEELKQQLEQETEELVALFKQTEIKKRLEALVEGHHHHHH | not failed
